Target: CIP2A(1-560)-V5 (human, UniProt Q8TCG1-1 1-560)
Experiment: pull-down

B1: GST-NOCIVA (CIP2A 1-545 + 13 aa peptide) (natural protein)
chain: not shown
  binding result: binds

Reference: paper doi:10.1101/2020.08.24.264606 (bioRxiv, 2020)
